Laboratory results as given in PMC6093788.

Target: azide-labeled Aβ (14–23) peptide
Assay: AFM force spectroscopy

azide-labeled Aβ (14–23) peptide
rupture force, dimer of neighbouring peptides (two-peak curves, peaks close): 44 pN | rupture force, dimer of peptides 1 and 3 (two-peak curves, peaks far): 37 pN | rupture force, monomer from the trimer (peak 1): 48 pN | rupture force, monomer from the trimer (peak 1), second experiment: 44 pN | rupture force, remaining dimer to monomers (peak 2): 53 pN | rupture force, remaining dimer to monomers (peak 2), second experiment: 50 pN | stoichiometry N: 3
